Source: patent publication US20250230251A1 (Bristol-Myers Squibb, published 2025)
Each block holds one binder with its values, some of them ahead of it.

Columns and labels:
[1] = target: the molecule itself; experiment: clone self-interaction BLI, antibody on AHQ sensor against 1 µM of the same antibody
[2] = target: T1, cyIL-18Rβ-HisAvi (cynomolgus monkey); experiment: SPR T200, mAb on anti-hFc, 37C, pH 7.4
T1 construct: Soluble analyte in SPR; also called cyno IL-18Rβ; cynomolgus monkey IL-18Rβ
T1 chain: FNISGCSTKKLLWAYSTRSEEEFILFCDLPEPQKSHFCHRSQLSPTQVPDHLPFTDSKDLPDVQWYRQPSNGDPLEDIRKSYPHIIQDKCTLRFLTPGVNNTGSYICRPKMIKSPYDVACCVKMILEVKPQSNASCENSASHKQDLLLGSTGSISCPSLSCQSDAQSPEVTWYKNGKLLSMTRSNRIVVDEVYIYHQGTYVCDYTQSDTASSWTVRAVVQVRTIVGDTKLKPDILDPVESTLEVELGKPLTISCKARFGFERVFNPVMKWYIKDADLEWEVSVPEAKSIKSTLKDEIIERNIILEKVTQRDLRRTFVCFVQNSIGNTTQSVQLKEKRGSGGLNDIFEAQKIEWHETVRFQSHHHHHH

[3] = target: T2, huIL-18Rβ-HisAvi (human, UniProt O95256 20-356, biotinylated in the Octet blocking assay); experiment: SPR T200, mAb on anti-hFc, 37C, pH 7.4
T2 construct: Soluble analyte in all SPR runs; captured on streptavidin sensors in the Octet assay; also called human IL-18Rβ; human IL-18Rβ-Avi-His
T2 sequence: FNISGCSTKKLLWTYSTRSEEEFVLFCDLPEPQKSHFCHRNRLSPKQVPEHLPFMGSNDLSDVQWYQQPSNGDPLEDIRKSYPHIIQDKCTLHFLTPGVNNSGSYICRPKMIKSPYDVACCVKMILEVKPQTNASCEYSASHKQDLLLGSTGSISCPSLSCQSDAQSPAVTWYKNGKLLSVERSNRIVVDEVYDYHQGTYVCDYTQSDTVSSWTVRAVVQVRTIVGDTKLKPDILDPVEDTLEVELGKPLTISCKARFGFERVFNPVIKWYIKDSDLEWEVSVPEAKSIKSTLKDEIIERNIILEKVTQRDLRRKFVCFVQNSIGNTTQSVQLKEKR

[4] = target: T2, huIL-18Rβ-HisAvi; experiment: SPR T200, pH 7.4; sample stored at pH 6, 4 w 4C
[5] = target: T2, huIL-18Rβ-HisAvi; experiment: SPR T200, pH 7.4; sample stored at pH 6, T0
[6] = target: T1, cyIL-18Rβ-HisAvi; experiment: SPR T200, mAb on anti-hFc, 37C, pH 6
[7] = target: T2, huIL-18Rβ-HisAvi; experiment: SPR T200, mAb on anti-hFc, 37C, pH 6
[8] = target: T2, huIL-18Rβ-HisAvi; experiment: SPR T200, pH 7.4; sample stored at pH 8, 4 w 40C
[9] = target: T2, huIL-18Rβ-HisAvi; experiment: SPR T200, mAb on anti-hFc, 37C, pH 7; control
[10] = target: T2, huIL-18Rβ-HisAvi; experiment: SPR T200, mAb on anti-hFc, 37C, pH 7.4; pH 7.4
[11] = target: T3, cynomolgus monkey IL-18Rβ on cells (cynomolgus monkey, UniProt A0A7N9D6S0 20-598); experiment: cell-based or functional assay
T3 sequence: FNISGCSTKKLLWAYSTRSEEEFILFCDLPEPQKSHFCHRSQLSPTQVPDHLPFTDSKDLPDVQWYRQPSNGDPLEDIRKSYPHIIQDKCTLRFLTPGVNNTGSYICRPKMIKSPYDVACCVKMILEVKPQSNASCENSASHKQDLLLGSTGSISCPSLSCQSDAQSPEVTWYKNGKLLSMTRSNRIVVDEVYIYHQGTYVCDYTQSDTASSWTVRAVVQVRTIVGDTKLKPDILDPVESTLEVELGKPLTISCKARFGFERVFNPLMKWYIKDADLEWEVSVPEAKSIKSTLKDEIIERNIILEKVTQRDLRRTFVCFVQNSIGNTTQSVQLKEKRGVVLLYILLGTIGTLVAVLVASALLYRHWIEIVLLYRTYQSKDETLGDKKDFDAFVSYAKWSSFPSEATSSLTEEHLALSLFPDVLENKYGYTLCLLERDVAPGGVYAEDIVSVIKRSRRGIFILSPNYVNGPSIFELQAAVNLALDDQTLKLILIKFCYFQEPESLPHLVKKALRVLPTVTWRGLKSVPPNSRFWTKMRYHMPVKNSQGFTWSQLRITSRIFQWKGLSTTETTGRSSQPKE

[12] = target: T2, huIL-18Rβ-HisAvi; experiment: SPR T200, pH 7; sample 2 w 40C

Kd [2]: 19 nM | koff [2]: 0.0029 s⁻¹ | kon [2]: 150000 M⁻¹ s⁻¹ | Kd [3]: 1.8 nM | koff [3]: 0.00043 s⁻¹ | kon [3]: 240000 M⁻¹ s⁻¹ | Kd [4]: 1.4 nM | koff [4]: 0.00038 s⁻¹ | kon [4]: 260000 M⁻¹ s⁻¹ | Kd [5]: 1.6 nM | koff [5]: 0.00038 s⁻¹ | kon [5]: 240000 M⁻¹ s⁻¹ | Kd [6]: 11 nM | koff [6]: 0.002 s⁻¹ | kon [6]: 180000 M⁻¹ s⁻¹ | Kd [7]: 0.65 nM | koff [7]: 0.00031 s⁻¹ | kon [7]: 480000 M⁻¹ s⁻¹ | Kd [8]: 1.9 nM | koff [8]: 0.0005 s⁻¹ | kon [8]: 260000 M⁻¹ s⁻¹
B1: P21 (antibody, human IgG1, kappa, V domains shown)
VH: QVQLQQSGPGLVKPSETLSLTCTVSGGSISNYYWTWIRQPPGKGLEWIGYISDSGSTNYNPSLKSRVTISVDTSKNQFSLKLSSVTAADTAVYYCARETIVVRGFYFYVMDVWGQGTTVTVSS
VL: AIQLTQSPSSLSASVGDRVTITCRASQGISSALAWYQQRPGKAPKLLIYDASNWESGVPSRFSGSGSGTDFTLTISSLQPEDFATYYCQQFNSYPWTFGQGTKVEIKR
notes: Human IgG
Average CSI-BLI ΔResponse [1]: -0.03 nm

Kd [2]: 1.4 nM | koff [2]: 0.00024 s⁻¹ | kon [2]: 180000 M⁻¹ s⁻¹ | apparent Kd (pooled screen) [3]: 0.51 nM | apparent koff (pooled screen) [3]: 0.00017 s⁻¹ | apparent kon (pooled screen) [3]: 330000 M⁻¹ s⁻¹ | apparent Kd (pooled screen) [9]: 0.18 nM | apparent koff (pooled screen) [9]: 5.2e-05 s⁻¹ | apparent kon (pooled screen) [9]: 280000 M⁻¹ s⁻¹ | apparent Kd (pooled screen) [4]: 1.5 nM | apparent koff (pooled screen) [4]: 0.00036 s⁻¹ | apparent kon (pooled screen) [4]: 240000 M⁻¹ s⁻¹ | apparent kon (pooled screen) [10]: 330000 M⁻¹ s⁻¹ | apparent Kd (pooled screen) [5]: 1.4 nM | apparent koff (pooled screen) [5]: 0.00033 s⁻¹ | apparent kon (pooled screen) [5]: 230000 M⁻¹ s⁻¹ | Kd [6]: 1.6 nM | koff [6]: 0.00028 s⁻¹ | kon [6]: 180000 M⁻¹ s⁻¹ | apparent Kd (pooled screen) [7]: 0.43 nM | apparent koff (pooled screen) [7]: 0.00016 s⁻¹ | apparent kon (pooled screen) [7]: 380000 M⁻¹ s⁻¹ | apparent Kd (pooled screen) [8]: 1.6 nM | apparent koff (pooled screen) [8]: 0.00038 s⁻¹ | apparent kon (pooled screen) [8]: 240000 M⁻¹ s⁻¹
B2: P20 (antibody, human IgG1, kappa)
heavy: QVQLQQSGPGLVKPSETLSLTCTVSGGSINNYYWSWIRQPPGKGLEWIGYIFYSGTTNYNPSLKSRVTISVDTSKNQFSLKLSSVTAADTAVYYCARDVGIAARNSYYYVMDVWGQGTTVTVSSASTKGPSVFPLAPSSKSTSGGTAALGCLVKDYFPEPVTVSWNSGALTSGVHTFPAVLQSSGLYSLSSVVTVPSSSLGTQTYICNVNHKPSNTKVDKRVEPKSCDKTHTCPPCPAPEAEGAPSVFLFPPKPKDTLMISRTPEVTCVVVDVSHEDPEVKFNWYVDGVEVHNAKTKPREEQYNSTYRVVSVLTVLHQDWLNGKEYKCKVSNKALPAPIEKTISKAKGQPREPQVYTLPPSREEMTKNQVSLTCLVKGFYPSDIAVEWESNGQPENNYKTTPPVLDSDGSFFLYSKLTVDKSRWQQGNVFSCSVMHEALHNHYTQKSLSLSPG
light: AIQLTQSPSSLSASVGDRVTITCRASQGISSALAWYQQKPGKAPKFLIYDASSLESGVPSRFSGSGSGTDFTLTISSLQPEDFATYYCQQFNSYPITFGQGTRLEIKRTVAAPSVFIFPPSDEQLKSGTASVVCLLNNFYPREAKVQWKVDNALQSGNSQESVTEQDSKDSTYSLSSTLTLSKADYEKHKVYACEVTHQGLSSPVTKSFNRGEC
notes: Human IgG
Average CSI-BLI ΔResponse [1]: 0.02 nm

IC50, IFNg, cyno whole blood IL-18+IL-12, Average [11]: 4.3 nM | IC50, IFNg, cyno whole blood IL-18+IL-12, donor B7619 (f) [11]: 5.1 nM | IC50, IFNg, cyno whole blood IL-18+IL-12, donor B8476 (m) [11]: 3.3 nM | IC50, IFNg, cyno whole blood IL-18+IL-12, donor B9301 (f) [11]: 4.7 nM | IC50, IFNg, cyno whole blood IL-18+IL-12, donor B9313 (m) [11]: 2.4 nM | IC50, IFNg, cyno whole blood IL-18+IL-12, donor B9447 (m) [11]: 5.1 nM | IC50, IFNg, cyno whole blood IL-18+IL-12, donor B9496 (m) [11]: 1.9 nM | IC50, IFNg, cyno whole blood IL-18+IL-12, donor B21333 (f) [11]: 1.8 nM | IC50, IFNg, cyno whole blood IL-18+IL-12, donor B21374 (f) [11]: 2.5 nM | IC50, IFNg, cyno whole blood IL-18+IL-12, donor B21394 (f) [11]: 6 nM | IC50, IFNg, cyno whole blood IL-18+IL-12, donor B21411 (f) [11]: 5.1 nM | IC50, IFNg, cyno whole blood IL-18+IL-12, donor B21435 (f) [11]: 10.5 nM | IC50, IFNg, cyno whole blood IL-18+IL-12, donor B21438 (f) [11]: 2.2 nM | IC50, IFNg, cyno whole blood IL-18+IL-12, donor B22017 (f) [11]: 5.7 nM | IC50, IFNg, cyno whole blood IL-18+IL-12, donor B22187 (m) [11]: 3.9 nM | Kd [12]: 0.13 nM | koff [12]: 3.7e-05 s⁻¹ | kon [12]: 290000 M⁻¹ s⁻¹
B3: P20-V1 (antibody, human IgG1, kappa, V domains shown)
VH: QVQLQESGPGLVKPSETLSLTCTVSGGSINNYYWSWIRQPPGKGLEWIGYIFYSGTTNYNPSLKSRVTISVDTSKNQFSLKLSSVTAADTAVYYCARDVGIAARNSYYYVMDVWGQGTTVTVSS
VL: AIQLTQSPSSLSASVGDRVTITCRASQGISSALAWYQQKPGKAPKFLIYEASSLESGVPSRFSGSGSGTDFTLTISSLQPEDFATYYCQQFNSYPITFGQGTRLEIKR
notes: Variant of P20
